For 38 molecules, normalised SPOT signal, Boehringer light units (BLU); mean over the file's lines of this peptide results are on record in PMC314469, “Protein Interaction Networks by Proteome Peptide Scanning” (PLoS Biology, 2004).

T1: amphyphisin SH3 (AMPH_HUMAN), P49418
T1 chain: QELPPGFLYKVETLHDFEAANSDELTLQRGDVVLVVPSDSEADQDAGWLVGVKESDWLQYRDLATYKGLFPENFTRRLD

The target of one assay is endophilin SH3 (SH3G2_HUMAN), Q99962. The assay is described as follows: SPOT array.
As to SAVVLKRPEILTDE [Q06055 26-39], the normalised SPOT signal, Boehringer light units (BLU); mean over the file's lines of this peptide stood at 38.4.
Same read-out and setting: the value for SAPPPQRPFRVSDH [Q9UHD4 30-43] was 5270; that for SDSKPKRPQPSREI [Q96JP2 1105-1118] was 44.6; that for SAGRPKRPHARRAL [Q14764 501-514] was 702.
Same read-out and setting: then SDREPTRPPRPILQ [Q9NQ53 86-99], with 52.9; and RVSWIRRPPGKALE [P01814 35-48], with 326; and SAKELRRPPPRSPQ [Q9NPN8 118-131], with 116.
Same read-out and setting: then SAGKFKRPIIAGME [P21453 335-348], with 46.1.
In the case of SSQRPGRPARVALP [P98161 2194-2207], the normalised SPOT signal, Boehringer light units (BLU); mean over the file's lines of this peptide stood at 13500.
Still for that read-out and setting: then SASGIKRPMASEVP [Q99754 28-41], with 81.2.
The same measure, in the same setting: then SSFIPKRPIPTIKD [Q12882 910-923], with 514; and RVLSLLRPWRPLRA [Q9NV38 3-16], with 366; and SSGGFRRPEELGRV [P09529 57-70], with 11.4.
The same measure, in the same setting: the value for RYLAISRPLRARVL [O43193 136-149] was 943; that for AVSAPKRPRVAPLQ [Q92817 837-850] was 240; that for RVLHLRRPGGPPHV [Q96DQ6 175-188] was 55.3.
Consider AWARPPKPPTFGEF [Q9Y3X0 319-333], for which the normalised SPOT signal, Boehringer light units (BLU); mean over the file's lines of this peptide stood at 716.
The same measure, in the same setting: the value for RYLILKRPGFQEHD [Q9NP17 122-135] was 228; that for SALRPKRPETPKQT [Q9UIG2 1726-1739] was 723.
SAHTPGRPPRVTKD [Q9UGB8 794-807] came in with a normalised SPOT signal, Boehringer light units (BLU); mean over the file's lines of this peptide of 268.
Same read-out and setting: then SDFSPSKPPSGPGK [Q9BZH6 185-199], with 63.8; and RYWAISRPFRYKRK [P21918 138-151], with 417; and SAPPPPRPPEEPAP [Q96BQ9 4-18], with 65.5.
Still for that read-out and setting: the value for RVPIPPRPTRPHVQ [Q07912 741-754] was 19700.
On the same count and under the same terms, the value for RWKEPKRPRPLKLS [Q92536 412-425] was 419; that for RVKYIKRPGAVLEA [O00763 939-952] was 36.2.
For SSTPPPRPPVLEEW [Q9UL65 458-472], the normalised SPOT signal, Boehringer light units (BLU); mean over the file's lines of this peptide came to 110.
On the same count and under the same terms, the value for SSNFPRRPDSGDVT [Q9BYH1 392-405] was 67.7.
On the same count and under the same terms, the value for SSRAPPRPAKTTDP [Q9P2Q1 364-377] was 279; that for RYLGITRPHKMLTT [Q99412 18-31] was 231; that for SAPSPARPARTQGP [Q9NPI5 198-211] was 4590.
On to SSKNIYRPDKFLQS [P28907 274-287], for which the normalised SPOT signal, Boehringer light units (BLU); mean over the file's lines of this peptide was determined as 63.6.
The same measure, in the same setting: then SASEFDRPLRPIVV [O76074 102-115], with 54.
RVIGLLRPLKDVTV [Q10466 5697-5710] yielded a normalised SPOT signal, Boehringer light units (BLU); mean over the file's lines of this peptide of 261.
The same measure, in the same setting: then SSKIFRRPSLPSIS [Q13370 310-323], with 40.4; and AVWSPRRPTATRDP [Q8WU34 71-84], with 97.9; and RVPIPPRPVKPDYR [Q9UD05 286-299], with 6030.
Still for that read-out and setting: then SAPGPRRPAPALLA [Q96DL6 316-329], with 3420.

The target of a further assay is T1, amphyphisin SH3 (AMPH_HUMAN), P49418. Kind of assay: SPOT array.
SAVVLKRPEILTDE [Q06055 26-39] had a normalised SPOT signal, Boehringer light units (BLU); mean over the file's lines of this peptide of 42.7.
The same measure, in the same setting: the value for SAPPPQRPFRVSDH [Q9UHD4 30-43] was 4530; that for SDSKPKRPQPSREI [Q96JP2 1105-1118] was 13.6; that for SAGRPKRPHARRAL [Q14764 501-514] was 24.8.
On the same count and under the same terms, the value for SDREPTRPPRPILQ [Q9NQ53 86-99] was 3890; that for RVSWIRRPPGKALE [P01814 35-48] was 15; that for SAKELRRPPPRSPQ [Q9NPN8 118-131] was 33.8.
Still for that read-out and setting: then SAGKFKRPIIAGME [P21453 335-348], with 42.5; and SSQRPGRPARVALP [P98161 2194-2207], with 2220.
Consider SASGIKRPMASEVP [Q99754 28-41], for which the normalised SPOT signal, Boehringer light units (BLU); mean over the file's lines of this peptide was found to be 17.6.
On the same count and under the same terms, then SSFIPKRPIPTIKD [Q12882 910-923], with 17.6.
Still for that read-out and setting: then RVLSLLRPWRPLRA [Q9NV38 3-16], with 1430; and SSGGFRRPEELGRV [P09529 57-70], with 41.8.
The same measure, in the same setting: then RYLAISRPLRARVL [O43193 136-149], with 1320; and AVSAPKRPRVAPLQ [Q92817 837-850], with 59; and RVLHLRRPGGPPHV [Q96DQ6 175-188], with 21.6.
On to AWARPPKPPTFGEF [Q9Y3X0 319-333], for which the normalised SPOT signal, Boehringer light units (BLU); mean over the file's lines of this peptide amounted to 21.8.
RYLILKRPGFQEHD [Q9NP17 122-135] showed a normalised SPOT signal, Boehringer light units (BLU); mean over the file's lines of this peptide of 23.9.
The same measure, in the same setting: then SALRPKRPETPKQT [Q9UIG2 1726-1739], with 588.
Same read-out and setting: the value for SAHTPGRPPRVTKD [Q9UGB8 794-807] was 1950; that for SDFSPSKPPSGPGK [Q9BZH6 185-199] was 52.
Same read-out and setting: then RYWAISRPFRYKRK [P21918 138-151], with 1070.
As to SAPPPPRPPEEPAP [Q96BQ9 4-18], the normalised SPOT signal, Boehringer light units (BLU); mean over the file's lines of this peptide was 85.5.
The same measure, in the same setting: then RVPIPPRPTRPHVQ [Q07912 741-754], with 9630; and RWKEPKRPRPLKLS [Q92536 412-425], with 56.9; and RVKYIKRPGAVLEA [O00763 939-952], with 27.1.
In the case of SSTPPPRPPVLEEW [Q9UL65 458-472], the normalised SPOT signal, Boehringer light units (BLU); mean over the file's lines of this peptide turned out to be 29.8.
Still for that read-out and setting: the value for SSNFPRRPDSGDVT [Q9BYH1 392-405] was 29.9; that for SSRAPPRPAKTTDP [Q9P2Q1 364-377] was 378; that for RYLGITRPHKMLTT [Q99412 18-31] was 102.
On the same count and under the same terms, the value for SAPSPARPARTQGP [Q9NPI5 198-211] was 4310; that for SSKNIYRPDKFLQS [P28907 274-287] was 34.
On the same count and under the same terms, then SASEFDRPLRPIVV [O76074 102-115], with 131; and RVIGLLRPLKDVTV [Q10466 5697-5710], with 205.
SSKIFRRPSLPSIS [Q13370 310-323]: the normalised SPOT signal, Boehringer light units (BLU); mean over the file's lines of this peptide came out at 12.2.
The same measure, in the same setting: the value for AVWSPRRPTATRDP [Q8WU34 71-84] was 36.2.
For the molecule RVPIPPRPVKPDYR [Q9UD05 286-299], the normalised SPOT signal, Boehringer light units (BLU); mean over the file's lines of this peptide worked out at 646.
On the same count and under the same terms, the value for SAPGPRRPAPALLA [Q96DL6 316-329] was 412.
